Measured values taken from US20110038869A1 (Genmab, published 2011).

Columns and labels:
biotinylated CD32bECDHis [1] = biological target: T1, biotinylated CD32bECDHis (human, UniProt P31994 43-223, limits assumed, biotinylated (sites not given)); experiment: competition ELISA, competitor 016
T1 sequence (looked up): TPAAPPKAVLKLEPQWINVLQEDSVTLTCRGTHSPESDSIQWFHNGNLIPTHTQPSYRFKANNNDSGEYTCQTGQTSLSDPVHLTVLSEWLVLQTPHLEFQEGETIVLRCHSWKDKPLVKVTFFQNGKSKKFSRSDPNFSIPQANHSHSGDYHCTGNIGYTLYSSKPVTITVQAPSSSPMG
Procedure: (§1) ELISA wells were coated overnight at 4° C. with anti-CD32b HuMabs serially diluted in PBS. The ELISA wells were washed with PBS, blocked for one hour at room temperature with 2% (v/v) chicken serum (Gibco, Paisley, Scotland) in PBS and washed again with PBS. Subsequently, the immobilized antibodies were incubated with biotinylated CD32bECDHis serially diluted in PBSTC. After washing with PBS/Tween, bound biotinylated CD32bECDHis was incubated with Streptavidin-poly-HRP (Sanquin, Amsterdam, The Netherlands) for 1 hr at RT an the reaction was developed as described supra.
(§2) To this end, ELISA wells coated with anti-CD32b HuMabs were incubated in the presence of an excess of CD32b-specific antibody and the predetermined concentration of biotinylated CD32bECDHis in fluid phase. The reaction was developed as described.

biotinylated CD32bECDHis [2] = biological target: T1, biotinylated CD32bECDHis; experiment: competition ELISA, competitor 024
Procedure: as §1, §2

[3] = biological target: T2, full length CD32b2 on transfected IIA1.6 cells (human, UniProt P31994-2 43-291); experiment: flow cytometry on IIA1.6-CD32b2 cells
T2 construct: whole, on cells; also called IIA1.6-CD32b2
T2 sequence (looked up): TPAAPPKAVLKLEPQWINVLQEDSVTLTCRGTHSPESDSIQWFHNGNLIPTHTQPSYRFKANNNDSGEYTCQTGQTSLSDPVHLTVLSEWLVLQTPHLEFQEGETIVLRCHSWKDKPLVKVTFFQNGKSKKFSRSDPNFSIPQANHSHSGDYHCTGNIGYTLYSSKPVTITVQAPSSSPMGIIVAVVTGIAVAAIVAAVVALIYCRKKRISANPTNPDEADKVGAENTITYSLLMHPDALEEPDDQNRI
Procedure: After harvesting and counting, IIA1.6 cells stably transfected with full length CD32a and CD32b (van den Herik-Oudijk et al., 1994), control IIA1.6 cells and Daudi-luc cells were resuspended in PBS (1×10⁶ cells/ml). Cells were put in 96-well V-bottom plates (100 μl/well) and washed twice with FACS buffer (PBS supplemented with 0.1% BSA and 0.02% Na-azide). Thereafter, 50 μl of serially diluted HuMab in FACS buffer was added to the cells and incubated for 30 minutes at 4° C. After washing three times with FACS buffer, 50 μl of phycoerythrin (PE)-conjugated rabbit anti-human IgG (Jackson ImmunoResearch Europe), diluted 1:200 in FACS buffer, was added. After 30 minutes at 4° C. (in the dark), cells were washed three times, and specific binding of the HuMabs was detected by flow cytometry on a FACSCalibur (BD Biosciences). […] Binding curves were analyzed using non-linear regression (sigmoidal dose-response with variable slope) using GraphPad Prism V4.03 software (GraphPad Software, San Diego, Calif., USA).
To analyze binding of anti-CD32b HuMabs to CD32b1 and CD32b2, IIA1.6 cells transfected with full length CD32b1 or CD32b2 (van den Herik-Oudijk et al., 1994) were prepared as described supra. The assay was performed as described supra. Flow cytometry was performed on a FACS Canto II (BD Biosciences).

biotinylated CD32bECDHis [4] = biological target: T1, biotinylated CD32bECDHis; experiment: competition ELISA, competitor 063
Procedure: as §1, §2

biotinylated CD32bECDHis [5] = biological target: T1, biotinylated CD32bECDHis; experiment: competition ELISA, competitor 034
Procedure: as §1, §2

biotinylated CD32bECDHis [6] = biological target: T1, biotinylated CD32bECDHis; experiment: competition ELISA, competitor 020
Procedure: as §1, §2

biotinylated CD32bECDHis [7] = biological target: T1, biotinylated CD32bECDHis; experiment: competition ELISA, competitor 053
Procedure: as §1, §2

biotinylated CD32bECDHis [8] = biological target: T1, biotinylated CD32bECDHis; experiment: competition ELISA, competitor 028
Procedure: as §1, §2

biotinylated CD32bECDHis [9] = biological target: T1, biotinylated CD32bECDHis; experiment: competition ELISA, competitor 2B6
Procedure: as §1, §2

CD32bECDHis = biological target: T3, CD32bECDHis (human, UniProt P31994 43-223, limits assumed); experiment: TR-FRET competition against HuMab-KLH-AlexaFluor 647 (N = 2)
T3 construct: Produced in HEK-293F cells; also called extracellular domain of CD32b with C-terminal His tag; soluble CD32b
T3 sequence (looked up): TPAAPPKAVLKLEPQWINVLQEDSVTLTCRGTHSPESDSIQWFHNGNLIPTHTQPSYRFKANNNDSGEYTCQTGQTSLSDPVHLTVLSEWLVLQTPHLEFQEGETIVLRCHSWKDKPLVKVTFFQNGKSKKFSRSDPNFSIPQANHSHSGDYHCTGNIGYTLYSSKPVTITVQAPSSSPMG
Text: To study the interaction of anti-CD32b HuMabs with CD32b and CD32a in more detail TR-FRET technology was applied. To this end, CD32bECDHis and CD32aECDHis were labeled with a fluorescent donor molecule directed against the histidine tag (Anti-6×His Europium3+, PerkinElmer, Boston Mass.).
Briefly, all dilutions were made in 0.5× Lance detection buffer (PerkinElmer, Boston Mass.) supplemented with 0.2% BSA (obtained via dilution of 7.5% BSA Stabilizer solution, cat: CR84-100, PerkinElmer) and 0.03% (v/v) Tween-20 (Riedel de Haen, Seelze, Germany). CD32bECDHis and CD32aECDHis were diluted to 0.5 μg/ml. […] Anti-6×His Europium3+ (PerkinElmer, Boston Mass.) was diluted to 0.15 μg/ml. […] After overnight incubation at 4° C. in the dark, fluorescence was measured using an EnVision 2101 Multilabel reader (PerkinElmer, Boston, Mass.) applying the following settings; Lance/Delfia dual mirror, emission filter 615-665 nm, excitation filter 320 nm, delay time 60 μs, window 100 μs, 100 flashes, 2000 μs per cycle and bidirectional row-by-row reading. Binding curves were analyzed using non-linear regression (sigmoidal dose-response with variable slope) using GraphPad Prism V4.03 software (GraphPad Software, San Diego, Calif., USA).

biotinylated CD32bECDHis [10] = biological target: T1, biotinylated CD32bECDHis; experiment: competition ELISA, competitor 026
Procedure: as §1, §2

biotinylated CD32bECDHis [11] = biological target: T1, biotinylated CD32bECDHis; experiment: competition ELISA, competitor 038
Procedure: as §1, §2

biotinylated CD32bECDHis [12] = biological target: T1, biotinylated CD32bECDHis; experiment: competition ELISA, competitor 022
Procedure: as §1, §2

- % residual binding (biotinylated CD32bECDHis [1]): 98%
- % residual binding (biotinylated CD32bECDHis [2]): 56%
- EC50 [3]: 69 nM
- % residual binding (biotinylated CD32bECDHis [4]): 89%
- % residual binding (biotinylated CD32bECDHis [5]): 23%
- % residual binding (biotinylated CD32bECDHis [6]): 83%
- % residual binding (biotinylated CD32bECDHis [7]): 90%
- % residual binding (biotinylated CD32bECDHis [8]): 75%
- % residual binding (biotinylated CD32bECDHis [9]): 90%
- IC50 (CD32bECDHis): 0.45 nM
- % residual binding (biotinylated CD32bECDHis [10]): 83%
- % residual binding (biotinylated CD32bECDHis [11]): 98%
- % residual binding (biotinylated CD32bECDHis [12]): 63%
B1: Antibody 034 (antibody, human IgG1, V domains shown)
VH: EVQLLESGGGLVQPGGSLRLSCAASGFTFSNFVMSWVRQAPGKGLEWVSGISGSGGNTDHADSVKGRFTISRDNSKNTVYLQMNSLRAEDTAVYYCAKDSGGLFDYWGLGTLVTVSS
VL: not shown
notes: Human antibody; also called HuMab 034
